Experimental data published in PMC3706991.

Tests used:
[1] = biological target: CD27 (human (endogenous in CD4+ T cells of blood donors)) (UniProt P26842)
[2] = biological target: CD27 (human (endogenous in CD4+ T cells of blood donors)) (UniProt P26842); remark: listed apart in the source

Chain of UniProt P26842 (P26842 20-260): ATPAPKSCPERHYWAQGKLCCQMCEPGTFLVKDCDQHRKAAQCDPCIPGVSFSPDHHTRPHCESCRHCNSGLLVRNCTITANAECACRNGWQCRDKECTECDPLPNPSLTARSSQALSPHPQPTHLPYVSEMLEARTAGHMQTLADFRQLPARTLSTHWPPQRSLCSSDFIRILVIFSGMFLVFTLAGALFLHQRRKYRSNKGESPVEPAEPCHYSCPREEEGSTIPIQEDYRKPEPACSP

- decrease in FasL expression level on CD4+ T cells (FACS) in co-culture with HB1.F3 after addition of anti-CD27 mAb [1]: 50%
- HB1.F3 (NSC)-mediated apoptosis of CD4+ T cells (Annexin V/PI, FACS) in co-culture with anti-CD27 blocking mAb (LG.7F9), 0-1 ug/ml [2]: 50%
- HB1.F3 (NSC)-mediated apoptosis of CD4+ T cells (Annexin V/PI, FACS) in co-culture with anti-CD70 blocking mAb (BU69), 0-1 ug/ml [2]: 50%
B1: CD70 (ligand)
chain: MPEEGSGCSVRRRPYGCVLRAALVPLVAGLVICLVVCIQRFAQAQQQLPLESLGWDVAELQLNHTGPQQDPRLYWQGGPALGRSFLHGPELDKGQLRIHRDGIYMVHIQVTLAICSSTTASRHHPTTLAVGICSPASRSISLLRLSFHQGCTIASQRLTPLARGDTLCTNLTGTLLPSRNTDETFFGVQWVRP
